Molecular target: KCNQ2+KCNQ3 channel (human KCNQ2 co-expressed with human KCNQ3) (human) (UniProt O43526)
Assay: cell-based or functional assay

KCNQ2+KCNQ3 channel (human KCNQ2 co-expressed with human KCNQ3) (human), sequence (O43526 other isoform, or with tags, fused parts or gaps, chain 1 of 2): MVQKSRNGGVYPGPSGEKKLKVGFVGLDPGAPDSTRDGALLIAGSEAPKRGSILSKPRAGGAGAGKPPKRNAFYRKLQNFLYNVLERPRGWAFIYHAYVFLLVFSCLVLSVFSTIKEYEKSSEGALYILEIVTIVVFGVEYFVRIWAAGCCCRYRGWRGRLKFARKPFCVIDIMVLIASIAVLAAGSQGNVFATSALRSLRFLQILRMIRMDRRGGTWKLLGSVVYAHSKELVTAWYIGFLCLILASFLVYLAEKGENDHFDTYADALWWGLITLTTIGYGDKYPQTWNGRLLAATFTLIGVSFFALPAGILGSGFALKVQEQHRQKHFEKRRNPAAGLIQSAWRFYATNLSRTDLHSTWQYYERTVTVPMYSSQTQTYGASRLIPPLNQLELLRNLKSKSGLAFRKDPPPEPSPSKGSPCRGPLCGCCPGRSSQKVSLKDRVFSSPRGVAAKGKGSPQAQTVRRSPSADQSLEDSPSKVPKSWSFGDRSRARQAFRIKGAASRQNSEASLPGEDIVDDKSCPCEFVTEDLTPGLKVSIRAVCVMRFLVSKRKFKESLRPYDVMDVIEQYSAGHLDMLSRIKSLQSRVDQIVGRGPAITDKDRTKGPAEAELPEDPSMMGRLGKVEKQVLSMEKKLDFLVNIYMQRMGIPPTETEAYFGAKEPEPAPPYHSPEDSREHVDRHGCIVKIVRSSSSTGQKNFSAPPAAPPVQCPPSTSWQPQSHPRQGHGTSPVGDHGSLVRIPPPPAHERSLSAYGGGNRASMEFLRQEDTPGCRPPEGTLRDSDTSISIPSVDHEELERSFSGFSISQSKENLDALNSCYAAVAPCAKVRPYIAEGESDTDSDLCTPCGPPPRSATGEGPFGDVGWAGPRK
KCNQ2+KCNQ3 channel (human KCNQ2 co-expressed with human KCNQ3) (human), sequence (O43526 other isoform, or with tags, fused parts or gaps, chain 2 of 2): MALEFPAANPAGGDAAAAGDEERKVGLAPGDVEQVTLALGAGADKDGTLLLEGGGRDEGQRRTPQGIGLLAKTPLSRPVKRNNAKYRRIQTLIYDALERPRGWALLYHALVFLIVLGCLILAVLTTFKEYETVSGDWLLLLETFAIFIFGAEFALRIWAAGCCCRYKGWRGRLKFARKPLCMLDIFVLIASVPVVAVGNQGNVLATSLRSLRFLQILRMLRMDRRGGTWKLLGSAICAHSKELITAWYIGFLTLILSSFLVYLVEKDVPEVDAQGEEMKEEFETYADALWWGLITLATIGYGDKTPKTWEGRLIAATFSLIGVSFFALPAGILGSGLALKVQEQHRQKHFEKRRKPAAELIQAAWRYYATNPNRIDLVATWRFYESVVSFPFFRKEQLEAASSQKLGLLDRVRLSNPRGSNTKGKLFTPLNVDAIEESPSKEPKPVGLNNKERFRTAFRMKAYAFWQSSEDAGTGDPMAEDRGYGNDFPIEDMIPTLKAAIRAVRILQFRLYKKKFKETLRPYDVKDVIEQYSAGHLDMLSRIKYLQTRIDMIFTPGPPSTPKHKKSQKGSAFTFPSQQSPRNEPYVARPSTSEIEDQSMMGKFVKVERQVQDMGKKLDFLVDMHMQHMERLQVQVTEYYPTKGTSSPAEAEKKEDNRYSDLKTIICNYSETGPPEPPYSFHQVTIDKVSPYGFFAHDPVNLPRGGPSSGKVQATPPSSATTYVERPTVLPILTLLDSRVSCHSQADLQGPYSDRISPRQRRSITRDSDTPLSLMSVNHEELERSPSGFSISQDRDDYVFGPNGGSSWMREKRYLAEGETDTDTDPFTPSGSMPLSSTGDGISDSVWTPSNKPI

KCNE1
reduction of peak current amplitude at +30 mV in oocytes co-expressing KCNE1: 62%
